Reference: US20230149556A1, “COMBINATION THERAPY” (ADC Therapeutics SA, priority 2017, published 2023)

Test system: Ramos cells
Experiment: In vitro cytotoxicity MTS assay, chequerboard of ADC and rituximab (Example 4)
Type: cell-based
Details: single agent
Procedure: Ramos cells were cultured RPMI 1640 supplemented with 10% Hyclone FBS. The concentration and viability of cells from a sub-confluent (80-90% confluency) T75 flask were measured by trypan blue staining, and counted using the LUNA-II™ Automated Cell Counter. Cells were diluted to 2 x10^5/ml, dispensed (50 µl/well) into 96-well flat-bottom plates. A chequerboard was set up in combining 10-fold dilutions of ADCTx19 or ADCTx22 and 10-fold dilutions of rituximab in RPMI before 50 µl of each dilution was transferred into the 96-well plate containing the cells. This plate was incubated at 37° C. in a CO2-gassed incubator for 4 days. At the end of the incubation period, cell viability was measured by MTS assay. MTS (Promega) was dispensed (20 µl per well) into each well and incubated for 4 hours at 37C in the CO2-gassed incubator. Well absorbance was measured at 490 nm. IC50 was determined from the dose-response data using GraphPad Prism using the non-linear curve fit algorithm: sigmoidal dose-response curve with variable slope.

Q: How did the “cytotoxic effect by itself” value turn out when “Rituximab: anti-CD20 agent, antibody, CAS 174722-31-7” was run?
A: no significant cytotoxic effect
